Here are results for eight molecules from patent US12747297 (dated 2026).

Sequences and labels used below:
B1: 5R65.39 (antibody, V domains shown)
VH: QVQLVQSGAEVKKPGSSVKVSCKASGYTFTSYWINWVRQAPGQGLEWIGHIYPNKNENYYNHKFKDKATLTVDKSTNTAYMELSSLRSEDTAVYYCTREFYGRSRYSAMDYWGQGTTLTVSS
VL: DIQMTQSPSTLSASVGDRVTITCKASQNVGTAVAWYQQKPGKAPKLLIYWASTRHTGVPDRFSGSGSGTDFTLTISSLQPDDFATYYCQQFGRYPYTFGSGTKVEVK
B2: 5R65 (antibody, V domains shown)
VH: B1 VH with E99D, F100Y, R105Y, S107Y
VL: B1 VL
B3: 5R65.14 (antibody, V domains shown)
VH: B1 VH with F100H, S104P, R105Y, S107N
VL: B1 VL
B4: 5R65.10 (antibody, V domains shown)
VH: B1 VH with F100Y, R105Y, S107A
VL: B1 VL
B5: 5R65.7 (antibody, V domains shown)
VH: B1 VH with S104Q, R105Y, S107Q
VL: B1 VL
B6: 5R65.18 (antibody, V domains shown)
VH: B1 VH with F100Y, S104T, R105Y
VL: B1 VL
B7: 4R.N8 (antibody, V domains shown)
VH: EVQLLESGGGLVQPGGSLRLSCAASGFTFSRHAMAWVRQAPGKGLEWVSAITMSGRSIYYADSVKGRFTISRDNSKNTLYLQMNSLRAEDTAVYYCARVHRAFDYWGQGTLVTVSS
VL: QSVLTQPPSASGTPGQRVTISCSGSPLFPDSGSFNWYQQLPGTAPKLLIYADSHRPSGVPDRFSGSKSGTSASLAISGLRSEDEADYYCGTWDYSLSRYVLGGGTKLTVLG
B8: 4R.N2 (antibody, V domains shown)
VH: B7 VH with M53A, A61G
VL: B7 VL with R98A

Where a chain is given by its changes, count along the chain named.

As a reminder, the Kd is a measure of binding affinity in units of concentration.

The target of the first assay is sIL-4Rα (human).
Chain of sIL-4Rα (human) (chain, as listed by the source): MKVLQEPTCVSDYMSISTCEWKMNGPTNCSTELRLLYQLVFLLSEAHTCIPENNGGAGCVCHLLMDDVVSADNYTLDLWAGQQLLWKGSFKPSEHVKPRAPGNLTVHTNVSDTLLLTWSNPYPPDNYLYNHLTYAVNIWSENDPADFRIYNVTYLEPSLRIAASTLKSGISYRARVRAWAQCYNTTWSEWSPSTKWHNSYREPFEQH
Assay: not given
As to B1, the binding result is given as “no binding”.

B2: the binding result is on record as “no binding”.

For B3, the binding result was “no binding”.

Consider B4, for which the binding result is recorded as “no binding”.

For the molecule B5, the binding result was “no binding”.

Regarding B6, the binding result is “no binding”.

For the next assay, the target named is sIL-4Rα (human). Description: BLI.
B7 registered a Kd of 0.0802 nM.

Regarding B8, the Kd stood at 0.108 nM.
